Values belong to the substance of their own block, whether it stands above or below them.
Key:
Assay in all cases: native gel or EMSA
[1] = target: cytochrome c oxidase (COX), monomeric (bovine (endogenous in bovine heart mitochondria)) (UniProt P00429)
[2] = target: Apoptosis Inducing Factor 1 (AIFM1) (bovine (endogenous in bovine heart mitochondria))
[3] = target: complex III (CIII) (bovine (endogenous in bovine heart mitochondria))
[4] = target: complex V (CV) (bovine (endogenous in bovine heart mitochondria))

Chain of UniProt P00429 (P00429 whole entry, looked up): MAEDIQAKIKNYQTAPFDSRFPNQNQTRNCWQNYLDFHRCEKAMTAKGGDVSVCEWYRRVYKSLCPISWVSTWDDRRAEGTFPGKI

percent of monomeric COX engaged in the complex [1]: 10%
stoichiometry N (AIFM1 per COX monomer) [1]: 2
stoichiometry N [2]: 2
Substance: Apoptosis Inducing Factor 1 (AIFM1) (natural protein)

stoichiometry N [3]: 2
Substance: complex III (CIII)

stoichiometry N [4]: 2
Substance: complex V (CV)

— article doi:10.1101/2021.03.31.437858
